The target of assay [1] is T1, membrane-bound human MSLN (human, UniProt Q13421 296-598).
T1 construct: the assay field says which; The construct expressed in CHOK1 is not described further; also called HuMSLN-CHOK1; human mesothelin on CHOK1 cells
Kind of assay: cell ELISA, CHOK1 cells expressing human MSLN. The protocol: (§1) The wells of a 96-well plate are seeded with sufficient cells to provide 95-100% confluency on day 0 (the day of assay). On day 0 the culture medium is removed and 50 μL/well hybridoma supernatant fraction, or purified antibody starting at 10 μg/mL or equal molar concentration and serially diluted 4 or 5-fold in CHO medium (DMEM F12, 10% Bovine serum). The plate is then incubated for an hour at room temperature or a temperature up to 37° C. Next, about 50 μL of a pre-determined concentration of ligand is added to the wells of the plate and the plate incubated for 30 minutes at room temperature or a temperature up to 37° C. The plate wells are washed with ELISA wash (PBS containing 0.05% polysorbate 20. Next, 50 μL/well of HRP-conjugated anti-species IgG diluted 1:2000 in CHO medium is added to the wells and the plate incubated for an hour at room temperature or a temperature up to 37° C. HRP conjugated anti-species IgG include goat anti-mouse IgG-HRP (Southern Biotech, cat #1030-05), goat anti-rat IgG-HRP (Southern Biotech, cat #3030-05), and goat anti-human IgG-HRP (Jackson Immunologics, cat #109-036-098). The plate wells are washed with the ELISA wash. Next, 50 μL/well TMB substrate (1 step Ultra TMB-ELISA: Thermo Fisher, Cat #34029) is added to the wells. When the blank starts to turn blue, 50 μL/well TMB stop solution (KPL, Cat #50-85-06) is added to the wells and A450-A620 is measured on an ELISA reader.
(§2) The OVACAR3 cell line is a human ovarian cancer cell line that expresses high levels of human MSLN.

Assay [2] addresses T2, membrane-bound rhesus MSLN (Rhesus (Macaca mulatta)).
T2 construct: The expressed construct is not described further; also called Rh MSLN-CHOK1; RhMSLN
T2 chain: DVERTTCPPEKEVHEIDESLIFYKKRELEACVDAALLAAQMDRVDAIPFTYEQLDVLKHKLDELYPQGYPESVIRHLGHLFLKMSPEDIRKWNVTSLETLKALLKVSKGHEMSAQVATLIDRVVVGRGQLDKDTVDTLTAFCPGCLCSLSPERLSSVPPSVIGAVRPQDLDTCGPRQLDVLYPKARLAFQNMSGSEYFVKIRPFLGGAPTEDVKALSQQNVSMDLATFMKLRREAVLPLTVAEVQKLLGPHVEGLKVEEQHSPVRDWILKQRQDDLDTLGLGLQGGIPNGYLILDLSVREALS
Description: cell ELISA, CHOK1 cells expressing rhesus MSLN. The protocol:
as §1, §2
(ELISA stands for enzyme-linked immunosorbent assay.)

The target of assay [3] is T1, membrane-bound human MSLN. Kind of assay: cell ELISA, OVCAR3 cells (endogenous human MSLN).
The target of assay [4] is T3, soluble human MSLN (87BGR) (human, UniProt Q13421 296-598).
T3 construct: Purified soluble protein coated on the ELISA plate; also called HuMSLN (87BGR); purified human MSLN
Description: protein ELISA, coated soluble human MSLN (87BGR). The protocol: (§3) The wells of a 96-well plate are coated with 50 μL of purified human or rhesus MSLN in a carbonate coating buffer (5.3 g NaHCO₃ and 3.2 g Na₂CO₃ in 2 L H₂0) or HyClone Dulbecco's phosphate buffered saline (DPBS; Hyclone, cat #SH30028.02) at a concentration of 1-2 μg/mL and incubated overnight at 4° C. Afterwards, the plate wells are washed with well wash solution (phosphate buffered saline containing 0.05% polysorbate 20). The plate wells are then blocked by adding Super Block Blocking Buffer T20 (Thermo Scientific, #37536) for 1-2 hours at room temperature followed by washing with well wash solution. Next, 50 μL/well hybridoma supernatant fraction (used neat), or purified antibody starting at 10 μg/mL and serially diluted 4- or 5-fold in ELISA buffer (DPBS+0.1% BSA+0.05% polysorbate 20 is added to the wells. The plates are incubated for an hour at room temperature, then the wells washed with well wash solution and 50 μL/well horseradish […] (HRP) conjugated anti-species IgG diluted 1:3000-5000 in ELISA buffer is added to the wells. HRP conjugated anti-species IgG include goat anti-mouse IgG-HRP (Southern Biotech, cat #1030-05), goat anti-rat IgG-HRP (Southern Biotech, cat #3030-05), and goat anti-human IgG-HRP (Jackson Immunologics, cat #109-036-098). The plates are incubated for an hour at room temperature, then the wells washed with well wash and 50 μL/well ABTS Peroxidase Substrate (Kirkgaard & Perry Laboratories) is added to the wells. After 10 minutes the OD at 405 nm is measured using an ELISA plate reader.
as §2

In assay [5] the target is T4, soluble rhesus MSLN (87BIC) (Rhesus (Macaca mulatta)).
T4 construct: Purified soluble protein coated on the ELISA plate; also called Rh MSLN (87BIC); purified rhesus MSLN
T4 chain: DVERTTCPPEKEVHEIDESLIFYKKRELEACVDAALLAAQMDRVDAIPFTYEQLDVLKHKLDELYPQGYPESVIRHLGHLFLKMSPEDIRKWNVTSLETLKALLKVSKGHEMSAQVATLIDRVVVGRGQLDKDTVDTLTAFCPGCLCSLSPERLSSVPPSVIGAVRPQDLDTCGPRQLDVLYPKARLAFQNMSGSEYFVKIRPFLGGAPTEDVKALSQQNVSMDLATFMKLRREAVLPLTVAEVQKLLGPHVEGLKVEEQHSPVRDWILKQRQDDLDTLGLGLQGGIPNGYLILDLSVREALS
Description: protein ELISA, coated soluble rhesus MSLN (87BIC). The protocol: as §3, §2

For orientation: EC50 means the concentration needed to bring the measured effect to its halfway point. High values mean weaker potency, low ones greater potency.

T1 sequence (Q13421 other isoform, or with tags, fused parts or gaps limits assumed): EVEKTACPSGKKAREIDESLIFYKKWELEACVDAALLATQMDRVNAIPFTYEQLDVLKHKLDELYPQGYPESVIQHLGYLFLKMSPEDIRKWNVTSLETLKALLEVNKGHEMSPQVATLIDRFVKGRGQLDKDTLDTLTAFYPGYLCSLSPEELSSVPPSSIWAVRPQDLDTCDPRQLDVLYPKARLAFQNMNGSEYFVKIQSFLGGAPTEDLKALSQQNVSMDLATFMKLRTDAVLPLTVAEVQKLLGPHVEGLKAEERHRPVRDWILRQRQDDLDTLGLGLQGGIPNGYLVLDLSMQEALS
T3 sequence (Q13421 other isoform, or with tags, fused parts or gaps limits assumed, form in doubt): as the sequence (Q13421 other isoform, or with tags, fused parts or gaps limits assumed) above

B1: SV017.47D7.1C2 (antibody, V domains shown)
VH: EVQLVESGGGLVQPGGSLRLSCAATGFTFSSYWMHWVRQGPGKGLVWVSRINSDGTSTVYADSVKGRFTISRDNAKNTLYLQMNSLRAEDTAVYYCARGRGIMTYWGQGTLVTVSS
VL: DIQMTQSPSSLSASVGDRVTITCRASQDIGSWLTWYQRKPEKAPKSLIYAASSLQSGVPSRFSGSGSGTDFTLTISSLQPEDFATYYCQQYKSYPLTFGQGAKLEIK
notes: also called antibody from hybridoma clone SV017.47D7.1C2
Consider B1, for which the concentration giving a half-maximal response (EC50) in assay [1] is 0.03 µg/mL; in assay [2], 0.26 µg/mL; in assay [3], 0.01 µg/mL; in assay [4], 0.03 µg/mL; in assay [5] it was 0.01 µg/mL.

B2: SV017.51F4.1A1 (antibody, V domains shown)
VH: EVQLVESGGGLVQPGGSLRLSCAATGFTFSSYWMHWVRQGPGKGLVWVSRINSDGTSTVYADSVKGRFTISRDNAKNTLYLQMNSLRAEDTAVYYCARGRGIMTYWGQGTLVTVSS
VL: DIQMTQSPSSLSASVGDRVTITCRASQDIGSWLTWYQRKPEKAPKSLIYAASSLQSGVPSRFSGSGSGTDFTLTISSLQPEDFATYYCQQYKSYPLTFGQGAKLEIK
notes: also called antibody from hybridoma clone SV017.51F4.1A1
B2: the EC50 was found to be 0.04 µg/mL in assay [1]; 0.26 µg/mL in assay [2]; 0.01 µg/mL in assay [3]; 0.03 µg/mL in assay [4]; 0.02 µg/mL in assay [5].

B3: SV017.13B12.1E1 (antibody, V domains shown)
VH: EVQLVESGGGLVQPGGSLRLSCAATGFTFSSYWMHWVRQGPGKGLVWVSRINSDGTSTVYADSVKGRFTISRDNAKNTLHLQMNSLRAEDTAVYYCARGRGIMTYWGQGTLVTVSS
VL: DIQMTQSPSSLSASVGDRVTITCRASQDIGSWLTWYQRKPEKAPKSLIYAASSLQSGVPSRFSGSGSGTDFTLTISSLQPEDFATYYCQQYKSYPLTFGQGAKLEIK
notes: also called antibody from hybridoma clone SV017.13B12.1E1
For B3, the EC50 stood at 0.02 µg/mL in assay [1]; 0.23 µg/mL in assay [2]; 0.01 µg/mL in assay [3]; 0.04 µg/mL in assay [4]; 0.02 µg/mL in assay [5].

B4: SV017.50G3.1B1 (antibody, V domains shown)
VH: EVQLVESGGGLVQPGESLRLSCAATGFTFSSYWMHWVRQGPGKGLVWVSRINSDGTSTVYADSVKGRFTISRDNAKNTLFLQMNSLRAEDTAVYYCARGRGIMTYWGQGTLVTVSS
VL: DIQMTQSPSSLSASVGDRVTITCRASQDIGSWLTWYQRKPEKAPKSLIYAASSLQSGVPSRFSGSGSGTDFTLTISSLQPEDFATYYCQQYKSYPLTFGQGAKLEIK
notes: also called antibody from hybridoma clone SV017.50G3.1B1
In the case of B4, the EC50 in assay [1] turned out to be 0.05 µg/mL; in assay [2] it was 0.33 µg/mL; in assay [3] it was 0.01 µg/mL; in assay [4], 0.04 µg/mL; in assay [5], 0.02 µg/mL.

B5: SV018.20B12.1D1 (antibody, V domains shown)
VH: QVQLQESGPGLVKPSETLSLTCTVSGGSISSYYWSWIRQPPGKGLEWIGYIYYSGSTNYNPSLKSRVTISVDTSKNQFSLKLSSVTAADTAVYYCARTGYIPMDVWGQGTTVTVSS
VL: EIVLTQSPDFQSVTPKEKVTITCRASQSIGSNLHWYQQKPDQSPKLLIKYVSQSFSGVPSRFSGSGSGTDFTLTINSLEAEDAATYYCHQSRSLPYTFGQGTKLEIK
notes: also called antibody from hybridoma clone SV018.20B12.1D1
As for B5, the EC50 in assay [1] is 0.01 µg/mL; in assay [3], 0.01 µg/mL; in assay [4], 0.11 µg/mL. In addition, the binding result in assay [2] is “no binding”.

B6: SV018.45B6.1G1 (antibody, V domains shown)
VH: QVQLLQSGAEVKKPGASVKVSCKASGYTFTTYGISWVRQAPGQGLEWLGWITAYNRNTNYAQKLQGRVTMTTDTSTSTSFMVLRSLRSDDTAVYYCARVGDSDAFDIWGQGTMVTVSS
VL: EIVMTQSPATLSLSPGERATLSCRTSQSVFNSFLSWYQQKPGQAPRLLLYGTSTRATGIPARFSGSGSGTDFTLTISSLQPEDFAVYYCQQDYKLPLTFGGGTKVEIK
notes: also called SV018.45.1G1
For the molecule B6, the concentration giving a half-maximal response (EC50) in assay [1] was found to be 0.01 µg/mL; in assay [4], 1.37 µg/mL. Besides, in assay [2], the binding result is “no binding”.
